Test [1] deals with T1, human serum albumin (human, UniProt P02768 25-609).
T1 construct: mature; Bought purified serum albumin; also called HSA; Human albumin
The test is described as follows: SPR, Fab captured; albumin taken as HSA. On the technique in general: In SPR one partner is held on a chip, and binding of the other changes the refractive index at the surface.
Description: (§1) Each assay cycle consisted of firstly capturing the antibody sample using a 1 min injection, before an association phase consisting of a 3 min injection of albumin, after which dissociation was monitored. After each cycle, the capture surface was regenerated with two 1 min injections of 40 mM HCl followed by 30 s of 5 mM NaOH. The flow rates used were 10 μl/min for capture, 30 μl/min for both the association and dissociation phases, and 10 μl/min for regeneration. A blank flow-cell was used for reference subtraction and buffer-blank injections were included to subtract instrument noise and drift.

Test [2] deals with T1, human serum albumin. The test is described as follows: SPR, Fab captured; albumin taken as HSA. This is another data set of the same source.
Description: as §1

Like-named read-outs stand apart in the source and are kept apart here.

B1: CA645 gL4gH31 Fab (Fab, V domains shown)
VH: EVQLLESGGGLVQPGGSLRLSCAVSGIDLSNYAINWVRQAPGKGLEWIGIIWAVGTTFYATWAKGRFTISRDNSKNTVYLQMNSLRAEDTAVYYCARTVPGYSTAPYFDLWGQGTLVTVSS
VL: DIQMTQSPSSVSASVGDRVTITCQSSPSVWSNFLSWYQQKPGKAPKLLIYEASKLTSGVPSRFSGSGSGTDFTLTISSLQPEDFATYYCGGGYSSISDTTFGGGTKVEIK
notes: Fab: human gamma1 CH1, human kappa (Km3); Kabat numbering
As a reminder, the Kd is a measure of binding affinity in units of concentration. What is called koff is the rate constant with which the complex falls apart. Low values mean a long-lived complex, high ones a short-lived complex. As usually defined, the kon is the second-order rate constant of association. Low readings indicate slow association, high ones fast association. Turning to B1, in the test with human serum albumin [1], binding was put at a Kd of 4.18 nM, the koff came to 0.000167 s⁻¹ and the kon turned out to be 40000 M⁻¹ s⁻¹.

B2: CA645 gL20gH5 Fab (Fab, V domains shown)
VH: EVQLLESGGGLVQPGGSLRLSCAVSGIDLSNYAINWVRQAPGKGLEWIGIIWASGTTFYATWAKGRFTISRDNSKNTVYLQMNSLRAEDTAVYYCARTVPGYSTAPYFDLWGQGTLVTVSS
VL: DIQMTQSPSSVSASVGDRVTITCQSSPSVWQNFLSWYQQKPGKAPKLLIYEASKLTSGVPSRFSGSGSGTDFTLTISSLQPEDFATYYCGGGYSSISDTTFGGGTKVEIK
notes: as for B1
In the test with human serum albumin [1], B2 had a Kd of 14.3 nM, a dissociation rate constant (koff) of 0.000794 s⁻¹ and a kon of 55500 M⁻¹ s⁻¹.

B3: CA645 gL21gH5 Fab (Fab, V domains shown)
VH: EVQLLESGGGLVQPGGSLRLSCAVSGIDLSNYAINWVRQAPGKGLEWIGIIWASGTTFYATWAKGRFTISRDNSKNTVYLQMNSLRAEDTAVYYCARTVPGYSTAPYFDLWGQGTLVTVSS
VL: DIQMTQSPSSVSASVGDRVTITCQSSPSVWENFLSWYQQKPGKAPKLLIYEASKLTSGVPSRFSGSGSGTDFTLTISSLQPEDFATYYCGGGYSSISDTTFGGGTKVEIK
notes: as for B1
In the test with human serum albumin [1], B3 showed a Kd of 6.34 nM, a koff of 0.000323 s⁻¹ and a kon of 51000 M⁻¹ s⁻¹.

B4: CA645 gL4gH35 Fab (Fab, V domains shown)
VH: EVQLLESGGGLVQPGGSLRLSCAVSGIDLSNYAINWVRQAPGKGLEWIGIIWAEGTTFYATWAKGRFTISRDNSKNTVYLQMNSLRAEDTAVYYCARTVPGYSTAPYFDLWGQGTLVTVSS
VL: DIQMTQSPSSVSASVGDRVTITCQSSPSVWSNFLSWYQQKPGKAPKLLIYEASKLTSGVPSRFSGSGSGTDFTLTISSLQPEDFATYYCGGGYSSISDTTFGGGTKVEIK
notes: as for B1
In the test with human serum albumin [1], B4 gave a Kd of 15.1 nM, a koff of 0.000399 s⁻¹ and a kon of 26500 M⁻¹ s⁻¹.

B5: CA645 gL4gH34 Fab (Fab, V domains shown)
VH: EVQLLESGGGLVQPGGSLRLSCAVSGIDLSNYAINWVRQAPGKGLEWIGIIWAQGTTFYATWAKGRFTISRDNSKNTVYLQMNSLRAEDTAVYYCARTVPGYSTAPYFDLWGQGTLVTVSS
VL: DIQMTQSPSSVSASVGDRVTITCQSSPSVWSNFLSWYQQKPGKAPKLLIYEASKLTSGVPSRFSGSGSGTDFTLTISSLQPEDFATYYCGGGYSSISDTTFGGGTKVEIK
notes: as for B1
On to B5, for which, in the test with human serum albumin [1], binding was put at a Kd of 11 nM, the koff was found to be 0.000422 s⁻¹ and the kon turned out to be 38500 M⁻¹ s⁻¹.

B6: CA645 gL15gH5 Fab (Fab, V domains shown)
VH: EVQLLESGGGLVQPGGSLRLSCAVSGIDLSNYAINWVRQAPGKGLEWIGIIWASGTTFYATWAKGRFTISRDNSKNTVYLQMNSLRAEDTAVYYCARTVPGYSTAPYFDLWGQGTLVTVSS
VL: DIQMTQSPSSVSASVGDRVTITCQSSPSVWRNFLSWYQQKPGKAPKLLIYEASKLTSGVPSRFSGSGSGTDFTLTISSLQPEDFATYYCGGGYSSISDTTFGGGTKVEIK
notes: as for B1
B6: in the test with human serum albumin [1], the Kd was 4.62 nM, the koff came to 0.000277 s⁻¹ and the kon was found to be 60100 M⁻¹ s⁻¹.

B7: CA645 gL16gH5 Fab (Fab, V domains shown)
VH: EVQLLESGGGLVQPGGSLRLSCAVSGIDLSNYAINWVRQAPGKGLEWIGIIWASGTTFYATWAKGRFTISRDNSKNTVYLQMNSLRAEDTAVYYCARTVPGYSTAPYFDLWGQGTLVTVSS
VL: DIQMTQSPSSVSASVGDRVTITCQSSPSVWWNFLSWYQQKPGKAPKLLIYEASKLTSGVPSRFSGSGSGTDFTLTISSLQPEDFATYYCGGGYSSISDTTFGGGTKVEIK
notes: as for B1
In the test with human serum albumin [1], B7 returned a Kd of 3.06 nM, a koff of 0.000169 s⁻¹ and a kon of 55300 M⁻¹ s⁻¹.

B8: CA645 gL18gH5 Fab (Fab, V domains shown)
VH: EVQLLESGGGLVQPGGSLRLSCAVSGIDLSNYAINWVRQAPGKGLEWIGIIWASGTTFYATWAKGRFTISRDNSKNTVYLQMNSLRAEDTAVYYCARTVPGYSTAPYFDLWGQGTLVTVSS
VL: DIQMTQSPSSVSASVGDRVTITCQSSPSVWINFLSWYQQKPGKAPKLLIYEASKLTSGVPSRFSGSGSGTDFTLTISSLQPEDFATYYCGGGYSSISDTTFGGGTKVEIK
notes: as for B1
B8: in the test with human serum albumin [1], binding was put at a Kd of 15.5 nM, the koff came to 0.000823 s⁻¹ and the association rate constant (kon) worked out at 53200 M⁻¹ s⁻¹.

B9: CA645 gL24gH5 Fab (Fab, V domains shown)
VH: EVQLLESGGGLVQPGGSLRLSCAVSGIDLSNYAINWVRQAPGKGLEWIGIIWASGTTFYATWAKGRFTISRDNSKNTVYLQMNSLRAEDTAVYYCARTVPGYSTAPYFDLWGQGTLVTVSS
VL: DIQMTQSPSSVSASVGDRVTITCQSSPSVWVNFLSWYQQKPGKAPKLLIYEASKLTSGVPSRFSGSGSGTDFTLTISSLQPEDFATYYCGGGYSSISDTTFGGGTKVEIK
notes: as for B1
In the test with human serum albumin [1], B9 yielded a Kd of 16.1 nM, an off-rate constant (koff) of 0.000883 s⁻¹ and a kon of 54700 M⁻¹ s⁻¹.

B10: CA645 gL25gH5 Fab (Fab, V domains shown)
VH: EVQLLESGGGLVQPGGSLRLSCAVSGIDLSNYAINWVRQAPGKGLEWIGIIWASGTTFYATWAKGRFTISRDNSKNTVYLQMNSLRAEDTAVYYCARTVPGYSTAPYFDLWGQGTLVTVSS
VL: DIQMTQSPSSVSASVGDRVTITCQSSPSVWFNFLSWYQQKPGKAPKLLIYEASKLTSGVPSRFSGSGSGTDFTLTISSLQPEDFATYYCGGGYSSISDTTFGGGTKVEIK
notes: as for B1
With B10, in the test with human serum albumin [1], the Kd was found to be 3.85 nM, the off-rate (koff) amounted to 0.000217 s⁻¹ and the kon turned out to be 56200 M⁻¹ s⁻¹.

B11: CA645 gL22gH5 Fab (Fab, V domains shown)
VH: EVQLLESGGGLVQPGGSLRLSCAVSGIDLSNYAINWVRQAPGKGLEWIGIIWASGTTFYATWAKGRFTISRDNSKNTVYLQMNSLRAEDTAVYYCARTVPGYSTAPYFDLWGQGTLVTVSS
VL: DIQMTQSPSSVSASVGDRVTITCQSSPSVWHNFLSWYQQKPGKAPKLLIYEASKLTSGVPSRFSGSGSGTDFTLTISSLQPEDFATYYCGGGYSSISDTTFGGGTKVEIK
notes: as for B1
In the test with human serum albumin [1], B11 returned an equilibrium dissociation constant (Kd) of 8.58 nM, a koff of 0.000478 s⁻¹ and a kon of 55700 M⁻¹ s⁻¹.

B12: CA645 gL4gH32 Fab (Fab, V domains shown)
VH: EVQLLESGGGLVQPGGSLRLSCAVSGIDLSNYAINWVRQAPGKGLEWIGIIWAIGTTFYATWAKGRFTISRDNSKNTVYLQMNSLRAEDTAVYYCARTVPGYSTAPYFDLWGQGTLVTVSS
VL: DIQMTQSPSSVSASVGDRVTITCQSSPSVWSNFLSWYQQKPGKAPKLLIYEASKLTSGVPSRFSGSGSGTDFTLTISSLQPEDFATYYCGGGYSSISDTTFGGGTKVEIK
notes: as for B1
In the test with human serum albumin [1], B12 had a Kd of 4.38 nM, a dissociation rate constant (koff) of 0.000169 s⁻¹ and a kon of 38600 M⁻¹ s⁻¹.

B13: CA645 gL26gH5 Fab (Fab, V domains shown)
VH: EVQLLESGGGLVQPGGSLRLSCAVSGIDLSNYAINWVRQAPGKGLEWIGIIWASGTTFYATWAKGRFTISRDNSKNTVYLQMNSLRAEDTAVYYCARTVPGYSTAPYFDLWGQGTLVTVSS
VL: DIQMTQSPSSVSASVGDRVTITCQSSPSVWYNFLSWYQQKPGKAPKLLIYEASKLTSGVPSRFSGSGSGTDFTLTISSLQPEDFATYYCGGGYSSISDTTFGGGTKVEIK
notes: as for B1
In the test with human serum albumin [1], B13 had a dissociation constant Kd of 4.13 nM, a koff of 0.000248 s⁻¹ and an on-rate constant (kon) of 60100 M⁻¹ s⁻¹.

B14: CA645 gL19gH5 Fab (Fab, V domains shown)
VH: EVQLLESGGGLVQPGGSLRLSCAVSGIDLSNYAINWVRQAPGKGLEWIGIIWASGTTFYATWAKGRFTISRDNSKNTVYLQMNSLRAEDTAVYYCARTVPGYSTAPYFDLWGQGTLVTVSS
VL: DIQMTQSPSSVSASVGDRVTITCQSSPSVWDNFLSWYQQKPGKAPKLLIYEASKLTSGVPSRFSGSGSGTDFTLTISSLQPEDFATYYCGGGYSSISDTTFGGGTKVEIK
notes: as for B1
B14: in the test with human serum albumin [1], the dissociation constant (Kd) was determined as 5 nM, the off-rate constant (koff) was 0.00026 s⁻¹ and the association rate constant (kon) amounted to 52000 M⁻¹ s⁻¹.

B15: CA645 gL17gH5 Fab (Fab, V domains shown)
VH: EVQLLESGGGLVQPGGSLRLSCAVSGIDLSNYAINWVRQAPGKGLEWIGIIWASGTTFYATWAKGRFTISRDNSKNTVYLQMNSLRAEDTAVYYCARTVPGYSTAPYFDLWGQGTLVTVSS
VL: DIQMTQSPSSVSASVGDRVTITCQSSPSVWNNFLSWYQQKPGKAPKLLIYEASKLTSGVPSRFSGSGSGTDFTLTISSLQPEDFATYYCGGGYSSISDTTFGGGTKVEIK
notes: as for B1
For the molecule B15, in the test with human serum albumin [1], the affinity, expressed as Kd, was 5.5 nM; the koff worked out at 0.000323 s⁻¹; the on-rate (kon) was determined as 58800 M⁻¹ s⁻¹.

B16: CA645 gL23gH5 Fab (Fab, V domains shown)
VH: EVQLLESGGGLVQPGGSLRLSCAVSGIDLSNYAINWVRQAPGKGLEWIGIIWASGTTFYATWAKGRFTISRDNSKNTVYLQMNSLRAEDTAVYYCARTVPGYSTAPYFDLWGQGTLVTVSS
VL: DIQMTQSPSSVSASVGDRVTITCQSSPSVWLNFLSWYQQKPGKAPKLLIYEASKLTSGVPSRFSGSGSGTDFTLTISSLQPEDFATYYCGGGYSSISDTTFGGGTKVEIK
notes: as for B1
In the test with human serum albumin [1], B16 showed a Kd of 14.8 nM, an off-rate constant (koff) of 0.000814 s⁻¹ and an association rate constant (kon) of 54900 M⁻¹ s⁻¹.

B17: CA645 gL4gH33 Fab (Fab, V domains shown)
VH: EVQLLESGGGLVQPGGSLRLSCAVSGIDLSNYAINWVRQAPGKGLEWIGIIWALGTTFYATWAKGRFTISRDNSKNTVYLQMNSLRAEDTAVYYCARTVPGYSTAPYFDLWGQGTLVTVSS
VL: DIQMTQSPSSVSASVGDRVTITCQSSPSVWSNFLSWYQQKPGKAPKLLIYEASKLTSGVPSRFSGSGSGTDFTLTISSLQPEDFATYYCGGGYSSISDTTFGGGTKVEIK
notes: as for B1
Consider B17, for which, in the test with human serum albumin [1], the affinity, expressed as Kd, was 6.18 nM; the koff was 0.00024 s⁻¹; the on-rate constant (kon) worked out at 38900 M⁻¹ s⁻¹.

B18: CA645 gL35gH5 Fab (Fab, V domains shown)
VH: EVQLLESGGGLVQPGGSLRLSCAVSGIDLSNYAINWVRQAPGKGLEWIGIIWASGTTFYATWAKGRFTISRDNSKNTVYLQMNSLRAEDTAVYYCARTVPGYSTAPYFDLWGQGTLVTVSS
VL: DIQMTQSPSSVSASVGDRVTITCQSSPSVWSNFLSWYQQKPGKAPKLLIYEASKLTSGVPSRFSGSGSGTDFTLTISSLQPEDFATYYCGGGYVSISDTTFGGGTKVEIK
notes: as for B1
In the test with human serum albumin [2], B18 displayed a Kd of 5.57 nM, a koff of 0.00029 s⁻¹ and an association rate constant (kon) of 52100 M⁻¹ s⁻¹.

For the origin of these results see patent US20190144529A1 (UCB, published 2019).
